Reference: article PMC11390479, “Visualizing chaperonin function in situ by cryo-electron tomography” (Nature, 2024)

What was measured:
[1] = molecular target: the molecule itself; experiment: cryo-EM structure; single-particle analysis of in vitro reconstituted GroEL–GroES–MetK complexes with ADP–BeFx (non-cycling); control of GroEL and GroES treated identically without MetK
GroEL [2] = molecular target: T1, GroEL (E. coli, UniProt P0A6F5 1-548); experiment: cryo-electron tomography with subtomogram averaging; in vitro reconstituted, isolated GroEL–GroES–MetK complexes with ADP–BeFx, imaged with the parameters of the in situ tomography; conditions: both partners purified
T1 construct: GroEL, E. coli chaperonin, 57 kDa subunit; two heptameric rings; One molecule for endogenous, pBAD33-expressed and purified GroEL (same untagged protein, same host); also called GroEL 14-mer; GroEL14; source: E. coli BL21(DE3) Gold: endogenous or overexpressed from pBAD33 (araBAD promoter), in cells or in lysate; copies: 14

GroEL [3] = molecular target: T1, GroEL; experiment: co-IP; GroEL antibody on protein A Sepharose; lysate of MetK-overexpressing cells with apyrase (25 U/ml) to arrest the GroEL cycle; HMK buffer, 1 h; immunoblot for GroEL and MetK and LC-MS/MS (iBAQ); conditions: partners not purified
GroEL [4] = molecular target: T1, GroEL; experiment: SEC; Superdex 200 3.2/300 GL; complex formed from 4 uM MetK heat denatured (60 °C, 15 min) with 1 uM GroEL 14-mer in buffer A (20 mM MOPS-NaOH pH 7.4, 200 mM KCl, 10 mM MgCl2, 5 mM DTT) with 30 mM NaF and 5 mM BeSO4, then 2 uM GroES 7-mer and 1 mM ATP; fractions by SDS-PAGE and mass spectrometry (iBAQ); conditions: both partners purified

T1 sequence (P0A6F5 whole entry): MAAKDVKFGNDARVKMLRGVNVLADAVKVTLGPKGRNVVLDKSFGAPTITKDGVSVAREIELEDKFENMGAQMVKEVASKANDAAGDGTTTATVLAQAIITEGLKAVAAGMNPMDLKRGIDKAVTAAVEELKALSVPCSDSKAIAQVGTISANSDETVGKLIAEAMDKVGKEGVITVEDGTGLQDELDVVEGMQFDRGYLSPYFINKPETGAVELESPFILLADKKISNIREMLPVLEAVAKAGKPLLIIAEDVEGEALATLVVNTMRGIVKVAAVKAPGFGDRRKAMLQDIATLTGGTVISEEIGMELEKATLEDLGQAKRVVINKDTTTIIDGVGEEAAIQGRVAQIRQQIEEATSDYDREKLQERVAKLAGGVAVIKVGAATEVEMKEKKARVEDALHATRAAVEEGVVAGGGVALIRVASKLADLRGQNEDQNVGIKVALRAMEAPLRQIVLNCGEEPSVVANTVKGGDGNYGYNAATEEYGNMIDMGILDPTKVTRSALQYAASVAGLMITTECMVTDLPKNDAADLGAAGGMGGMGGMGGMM

Row | Binder | binding result [1] | percent of chambers with strong density of folded MetK (class I) (GroEL [2]) | stoichiometry N (GroEL [3]) | stoichiometry N (GroEL [4])
1 | GroES (complex, E. coli, UniProt P0A6F9 1-97, looked up, GroES, E. coli co-chaperonin, heptamer of 10 kDa subunits; also called GroES 7-mer; lid-shaped cofactor GroES; source: E. coli BL21(DE3) Gold: endogenous or overexpressed from pBAD33 (with groEL, araBAD promoter), in cells) MNIRPLHDRVIVKRKEVETKSAGGIVLTGSAAAKSTRGEVLAVGNGRILENGEVKPLDVKVGDIVIFNDGYGVKSEKIDNEEVLIMSESDILAIVEA | binds |  |  | 
2 | S-adenosylmethionine synthase (MetK) (enzyme, E. coli, S-adenosylmethionine synthase MetK, obligate GroEL substrate of E. coli; 379 C-alpha atoms compared with PDB 7LOO; core loop residues 97-111; In vitro the protein was heat denatured (60 °C, 15 min) in the presence of GroEL before encapsulation; it stands in the chaperonin as a single subunit; also called fMetK (folded MetK); source: E. coli BL21(DE3): overexpressed from pET22b (T7 promoter, …)) MAKHLFTSESVSEGHPDKIADQISDAVLDAILEQDPKARVACETYVKTGMVLVGGEITTSAWVDIEEITRNTVREIGYVHSDMGFDANSCAVLSAIGKQSPDINQGVDRADPLEQGAGDQGLMFGYATNETDVLMPAPITYAHRLVQRQAEVRKNGTLPWLRPDAKSQVTFQYDDGKIVGIDAVVLSTQHSEEIDQKSLQEAVMEEIIKPILPAEWLTSATKFFINPTGRFVIGGPMGDCGLTGRKIIVDTYGGMARHGGGAFSGKDPSKVDRSAAYAARYVAKNIVAAGLADRCEIQVSYAIGVAEPTSIMVETFGTEKVPSEQLTLLVREFFDLRPYGLIQMLDLLHPIYKETAAYGHFGREHFPWEKTDKAQLLRDAAGLK |  | ~40% | ~1.3 MetK molecules per GroEL complex | ~1.2 MetK per GroEL 14-mer
